Assay results from the supplement of paper PMC7877785.
± gives the uncertainty stated by the source.

Test: self-splicing fitness, log relative to wild type (ln ratio); higher = more splicing; Tetrahymena group I intron in knt gene, E. coli kanamycin selection, DiMSum; sequences stand for … in CUCUCU…GGAGGGAAAAGUUAUCAGGCAUGCACCUGGUAGCUAGUCUUUAAACCAAUAGAUUGCAUCGGUUUAAAAGGCAAGACCGUCAAAUUGCGGGAAAGGGGUCAACAGCCGUUCAGUACCAAGUCUCAGGGGAAACUUUGAGAUGGCCUUGCAAAGGGUAUGGUAAUAAGCUGACGGACAUGGUCCUAACCACGCAGCCAAGUCCUAAGUCAACAGAUCUUCUGUUGAUAUGGAUGCAGUUCACAGACUAAAUGUCGGUCGGGGAAGAUGUAUUCUUCUCAUAAGAUAUAGUCGGACCUCUCCUUAAUGGGAGCUAGCGGAUGAAGUGAUGCAACACUGGAGCCGCUGGGAACUAAUUUGUAUGCGAAAGUAUAUUGAUUAGUUUUGGAGUACUCGUGGUCG
Procedure, shortened: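 The eight P1ex-region nucleotides of an intron in the knt kanamycin-resistance gene on pET-22b(+) were all randomised and the library put into E. coli BL21(DE3). Six replicate transformations were grown overnight at 37°C or 30°C on LB agar with or without 25 μg/mL kanamycin, together with 100 μg/mL carbenicillin, 50 μM IPTG and 0.2% rhamnose. Colonies were pooled and amplicon-sequenced on an Illumina HiSeq 2500. Fitness from DiMSum is the error-weighted combination of wild-type-normalised replicate fold changes, kanamycin over none.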

Sequence	self-splicing fitness (ln) (30 °C)	self-splicing fitness (ln) (37 °C)
AUGUAGCAAUAUUACGCUGA	-1.93 ± 0.15	-1.29 ± 0.18
AUGUAGCAAUAUUACGGAAU	-1.46 ± 0.082	-0.789 ± 0.11
AUGUAGCAAUAUUACGGAGA	–	-2.06 ± 0.38
AUGUAGCAAUAUUACGGAGC	-4.16 ± 0.16	-3.02 ± 0.15
AUGUAGCAAUAUUACGGGGG	-3.28 ± 0.27	-2.47 ± 0.37
AUGUAGCAAUAUUACGGGUA	-2.63 ± 0.24	-0.0625 ± 0.14
AUGUAGCAAUAUUACGGUAC	-3.47 ± 0.38	-1.89 ± 0.3
AUGUAGCAAUAUUACGGUUU	-0.83 ± 0.085	-0.694 ± 0.1
AUGUAGCAAUAUUACGUAAC	-2.96 ± 0.17	-1.54 ± 0.16
AUGUAGCAAUAUUACGUACG	-1.41 ± 0.1	-0.212 ± 0.13
AUGUAGCAAUAUUACGUGAA	-2.3 ± 0.12	-1.22 ± 0.14
AUGUAGCAAUAUUACGUGCC	-1.65 ± 0.22	-0.677 ± 0.2
AUGUAGCAAUAUUACGUGGG	–	-3.13 ± 0.21
AUGUAGCAAUAUUACGUUCA	-0.72 ± 0.075	-0.276 ± 0.089
AUGUAGCAAUAUUACGUUCG	-0.997 ± 0.095	-0.356 ± 0.12
AUUAAGCAAUAUUACGAAGC	-3.3 ± 0.25	-2.52 ± 0.31
AUUAAGCAAUAUUACGAAUG	-2.82 ± 0.2	-0.206 ± 0.2
AUUAAGCAAUAUUACGACCC	-1.2 ± 0.35	–
AUUAAGCAAUAUUACGAGGA	-3.01 ± 0.28	-0.871 ± 0.19
AUUAAGCAAUAUUACGAUCA	-1.58 ± 0.17	-0.409 ± 0.14
AUUAAGCAAUAUUACGAUGU	-0.608 ± 0.07	-0.0076 ± 0.084
AUUAAGCAAUAUUACGCCCG	-1.13 ± 0.22	0.13 ± 0.33
AUUAAGCAAUAUUACGCGAA	-1.32 ± 0.11	-0.882 ± 0.13
AUUAAGCAAUAUUACGCGGG	-2.61 ± 0.22	-1.72 ± 0.17
AUUAAGCAAUAUUACGCGUA	-1.27 ± 0.14	-0.834 ± 0.16

Sequence	self-splicing fitness (ln) (30 °C)	self-splicing fitness (ln) (37 °C)
AUUAAGCAAUAUUACGCUUC	-3.05 ± 0.19	-2.03 ± 0.18
AUUAAGCAAUAUUACGCUUG	-1.87 ± 0.11	-0.856 ± 0.14
AUUAAGCAAUAUUACGGAGC	-2.62 ± 0.34	-2.15 ± 0.31
AUUAAGCAAUAUUACGGAUG	-2.15 ± 0.14	-2.02 ± 0.22
AUUAAGCAAUAUUACGGCCG	-0.768 ± 0.12	0.0891 ± 0.15
AUUAAGCAAUAUUACGGGAU	-2.07 ± 0.15	-0.652 ± 0.12
AUUAAGCAAUAUUACGGGCG	-0.789 ± 0.085	-0.228 ± 0.11
AUUAAGCAAUAUUACGGGGA	-3.62 ± 0.38	-1.41 ± 0.18
AUUAAGCAAUAUUACGGUUG	-3.08 ± 0.21	-2.56 ± 0.24
AUUAAGCAAUAUUACGUCAC	–	-1.54 ± 0.4
AUUAAGCAAUAUUACGUCUA	-0.611 ± 0.093	0.119 ± 0.091
AUUAAGCAAUAUUACGUGUG	-1.9 ± 0.089	-1.18 ± 0.1
AUUAAGCAAUAUUACGUUCA	-0.728 ± 0.092	-0.399 ± 0.12
AUUAAGCAAUAUUACGUUCG	-0.91 ± 0.1	-0.85 ± 0.14
AUUAAGCAAUAUUACGUUCU	-0.566 ± 0.064	0.034 ± 0.086
AUUCAGCAAUAUUACGAAAA	0.178 ± 0.15	0.575 ± 0.17
AUUCAGCAAUAUUACGAAAG	-1.5 ± 0.11	-1.03 ± 0.13
AUUCAGCAAUAUUACGAACG	-0.206 ± 0.085	0.232 ± 0.13
AUUCAGCAAUAUUACGAGAC	–	-0.937 ± 0.18
AUUCAGCAAUAUUACGAGCA	-0.457 ± 0.16	-0.783 ± 0.2
AUUCAGCAAUAUUACGAGGG	-2.42 ± 0.26	-1.42 ± 0.34
AUUCAGCAAUAUUACGAGGU	-3.61 ± 0.17	-1.72 ± 0.14
AUUCAGCAAUAUUACGAGUU	-2.76 ± 0.16	-1.39 ± 0.13
AUUCAGCAAUAUUACGCAGC	-1.82 ± 0.38	-1.15 ± 0.26
AUUCAGCAAUAUUACGCCUG	-1.95 ± 0.12	-0.706 ± 0.19

Sequence	self-splicing fitness (ln) (30 °C)	self-splicing fitness (ln) (37 °C)
AUUCAGCAAUAUUACGCUGG	-3.36 ± 0.17	-2.98 ± 0.26
AUUCAGCAAUAUUACGGAUA	-1.72 ± 0.17	-1.17 ± 0.14
AUUCAGCAAUAUUACGGAUC	-3.24 ± 0.11	-2.53 ± 0.18
AUUCAGCAAUAUUACGGCUC	-0.786 ± 0.081	-0.0849 ± 0.1
AUUCAGCAAUAUUACGGGUA	-1.89 ± 0.11	-1.31 ± 0.12
AUUCAGCAAUAUUACGGUAU	-0.934 ± 0.065	-0.155 ± 0.073
AUUCAGCAAUAUUACGGUCG	-0.857 ± 0.085	-0.679 ± 0.14
AUUCAGCAAUAUUACGGUUA	-0.544 ± 0.089	-0.305 ± 0.08
AUUCAGCAAUAUUACGUGGA	-2.72 ± 0.18	-1.79 ± 0.12
AUUCAGCAAUAUUACGUGGC	-3.76 ± 0.14	-2.21 ± 0.16
AUUCAGCAAUAUUACGUGUU	-2.68 ± 0.1	-1.39 ± 0.089
AUUCAGCAAUAUUACGUUAU	-1.22 ± 0.079	0.0898 ± 0.095
AUUGAGCAAUAUUACGAAUU	-2.85 ± 0.23	-1.71 ± 0.24
AUUGAGCAAUAUUACGACAA	-2.28 ± 0.29	-1.31 ± 0.23
AUUGAGCAAUAUUACGACUC	-2.94 ± 0.29	-1.59 ± 0.27
AUUGAGCAAUAUUACGAGUG	-2.69 ± 0.28	-2.76 ± 0.38
AUUGAGCAAUAUUACGAUAU	-2.76 ± 0.18	-1.04 ± 0.17
AUUGAGCAAUAUUACGCAGC	-1.85 ± 0.29	-2.7 ± 0.38
AUUGAGCAAUAUUACGCCCA	-2.25 ± 0.25	-1.39 ± 0.39
AUUGAGCAAUAUUACGCCUA	-1.99 ± 0.2	-1.52 ± 0.2
AUUGAGCAAUAUUACGCCUC	-2.53 ± 0.48	-1.27 ± 0.42
AUUGAGCAAUAUUACGCGGU	-2.19 ± 0.19	–
AUUGAGCAAUAUUACGCGUC	-3.26 ± 0.19	-1.73 ± 0.2
AUUGAGCAAUAUUACGGCGG	-3.01 ± 0.19	-1.05 ± 0.38
AUUGAGCAAUAUUACGUAAC	-1.3 ± 0.3	-1.53 ± 0.31

Sequence	self-splicing fitness (ln) (30 °C)	self-splicing fitness (ln) (37 °C)
AUUGAGCAAUAUUACGUGGU	-3.28 ± 0.21	-3.12 ± 0.43
AUUGAGCAAUAUUACGUUAU	-2.61 ± 0.2	-1.86 ± 0.24
AUUGAGCAAUAUUACGUUGG	-3.62 ± 0.36	-0.682 ± 0.17
AUUUAGCAAUAUUACGAAGU	-1.91 ± 0.23	-1.24 ± 0.18
AUUUAGCAAUAUUACGACCU	0.0405 ± 0.29	0.114 ± 0.29
AUUUAGCAAUAUUACGACGA	-0.672 ± 0.15	0.131 ± 0.18
AUUUAGCAAUAUUACGACUA	-0.0865 ± 0.18	-0.454 ± 0.15
AUUUAGCAAUAUUACGAGAU	-3.55 ± 0.4	-1.41 ± 0.28
AUUUAGCAAUAUUACGAGGA	-2.7 ± 0.49	-2.18 ± 0.4
AUUUAGCAAUAUUACGAUCU	0.177 ± 0.13	0.0446 ± 0.11
AUUUAGCAAUAUUACGAUUC	-1.73 ± 0.22	-0.798 ± 0.26
AUUUAGCAAUAUUACGCACG	-1.9 ± 0.28	-0.778 ± 0.2
AUUUAGCAAUAUUACGCGAG	-2.19 ± 0.22	-0.658 ± 0.2
AUUUAGCAAUAUUACGCGUG	-1.2 ± 0.14	-0.97 ± 0.14
AUUUAGCAAUAUUACGCUCC	-1.4 ± 0.47	–
AUUUAGCAAUAUUACGCUCG	-0.131 ± 0.1	0.715 ± 0.15
AUUUAGCAAUAUUACGCUCU	0.51 ± 0.27	0.235 ± 0.44
AUUUAGCAAUAUUACGCUUU	-2.7 ± 0.16	-1.2 ± 0.11
AUUUAGCAAUAUUACGGCAG	-2.47 ± 0.14	-0.321 ± 0.15
AUUUAGCAAUAUUACGGGCA	-1.56 ± 0.19	-0.452 ± 0.26
AUUUAGCAAUAUUACGGGCU	-2.71 ± 0.19	-0.78 ± 0.16
AUUUAGCAAUAUUACGGGUG	-3.24 ± 0.14	-1.57 ± 0.14
